Test results from doi:10.1101/2024.04.16.588673 (bioRxiv, 2024).

T1: parathyroid hormone 1 receptor (PTH1R), C-tagged Citrine (human, UniProt Q03431 27-593)
T1 sequence: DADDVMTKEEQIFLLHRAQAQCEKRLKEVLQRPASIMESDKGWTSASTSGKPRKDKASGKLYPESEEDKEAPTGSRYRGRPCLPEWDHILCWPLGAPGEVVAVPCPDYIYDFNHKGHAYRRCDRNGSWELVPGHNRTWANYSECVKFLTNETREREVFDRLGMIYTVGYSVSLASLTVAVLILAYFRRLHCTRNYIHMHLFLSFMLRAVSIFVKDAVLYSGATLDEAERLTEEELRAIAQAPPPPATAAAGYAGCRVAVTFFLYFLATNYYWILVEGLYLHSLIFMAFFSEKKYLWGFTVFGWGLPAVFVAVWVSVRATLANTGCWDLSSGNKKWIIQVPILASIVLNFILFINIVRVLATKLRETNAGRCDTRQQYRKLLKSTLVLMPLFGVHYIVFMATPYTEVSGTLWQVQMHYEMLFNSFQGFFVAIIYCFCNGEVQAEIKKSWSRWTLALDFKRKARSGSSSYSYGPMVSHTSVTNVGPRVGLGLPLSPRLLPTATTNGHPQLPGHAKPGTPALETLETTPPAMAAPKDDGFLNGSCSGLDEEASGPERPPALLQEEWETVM

B1: receptor activity-modifying protein 2 (RAMP2), C-tagged Cerulean (natural protein)
chain: QPLPTTGTPGSEGGTVKNYETAVQFCWNHYKDQMDPIEKDWCDWAMISRPYSTLRDCLEHFAELFDLGFPNPLAERIIFETHQIHFANCSLVQPTFSDPPEDVLLAMIIAPICLIPFLITLVVWRSKDSEAQA
B2: receptor activity-modifying protein 3 (RAMP3), C-tagged Cerulean (natural protein)
chain: RAGGCNETGMLERLPLCGKAFADMMGKVDVWKWCNLSEFIVYYESFTNCTEMEANVVGCYWPNPLAQGFITGIHRQFFSNCTVDRVHLEDPPDEVLIPLIVIPVVLTVAMAGLVVWRSKRTDTLL

Molecular target: T1, parathyroid hormone 1 receptor (PTH1R), …
Assay: FRET or BRET

Binder | stoichiometry N
B1 | ~1 RAMP2 per PTH1R
B2 | ~2 RAMP3 per PTH1R
